Assay results taken from publication PMC5507773.

Biological target: LIMD1 (UniProt Q9UGP4)
Assay: co-IP of Xpr-LIMD1 with EYFP-AGO2
Settings: reference: wild type; sites S387

AGO2 (from UniProt Q9UKV8) S387A
binding against the reference: weaker
